According to publication PMC6625990, “Structural underpinnings of Ric8A function as a G-protein α-subunit chaperone and guanine-nucleotide exchange factor” (Nature Communications, 2019):
Read-outs that look alike come from different tables or passages of the source.

How the values were obtained:
[1] = DSF thermostability of Ric8A constructs and Ric8A1–492 mutants (protein alone); type: physicochemical, bovine
Method: Stabilities of Ric8A constructs with and without peptide ligands were assessed using differential scanning fluorimetry (DSF), in which an increase in fluorescence of the Sypro Orange dye is measured. Ric8A1–492, Ric8A1–452 and Ric8A1–426 in 20 mM Tris-HCl (pH 7.5) buffer containing 150 mM KCl, 5% glycerol, and 1 mM TCEP with and without peptide were used at a final concentration of 0.5 mg/ml and were supplemented with a 1000-fold dilution of Sypro Orange dye (Invitrogen). Temperature was increased at 1 °C/minute and fluorescence signals were recorded using real-time PCR (C1000 Touch thermal cycler, Bio Rad), with the cycler set to FRET mode and the excitation wavelength set at 450–490 nm and the emission wavelength at 560–580 nm.

Gαt333–350 = test: BLI: Ric8A1–492 and its mutants binding to biotinylated Gαt333–350; conditions: for binding to Gαt333–350 (in words): BLI; for Kd: BLI steady state
Method: (§1) An Octet RED96 system and streptavidin (SA)-coated biosensors (FortéBio, Menlo Park, CA) were used to measure association and dissociation kinetics for Gα peptides or the full-length Avi-tagged Gαt in relation to Ric8A1–492, Ric8A1–452, and Ric8A1–426. To obtain the Avi-tagged Gαt, Gαt was cloned into modified pET21a vector with the N-terminal His6-tag followed by the Avi tag and TEV cleavage site[59]. The Avi-tagged I340Q/N343H mutant of Gαt was prepared by QuikChange protocol. BL21(DE3) cells for expression of the Avi-tagged Gαt were grown in 2TY media supplemented with biotin (10 mg/liter), induced at OD600 of 0.6 with 50 µM IPTG and further grown overnight at 16 °C. Binding studies were performed in 20 mM Tris, 150 mM KCl, 5% glycerol, 1 mM TCEP, 0.5 mg/ml BSA, pH 8.0. All steps were performed at 26 °C, with biosensors stirred into 0.2 ml of sample in each well at 1000 rpm, and at a data acquisition rate of 5.0 Hz. N-terminally biotinylated Gαt333–350, Gαs363–380, C1 peptide and C2 peptide were loaded onto SA sensors at a concentration of 0.05, 0.05, 0.005, and 0.01 mg/ml for 40–90 seconds. Data for association and dissociation phases of the assay were collected as shown in Fig. 1b and Supplementary Figs. 8, 11, 12, and 14. To correct for baseline drift and non-specific binding, reference sensors lacking bound Gα peptide were used in the BLI assays with Ric8A proteins at the highest concentrations. Kinetic data fitting was performed using FortéBio Data Analysis software 10.0. For each concentration of Ric8A1–492, dissociation rate constant (kd) values were calculated from the corresponding dissociation phases of the curves. These kd values were used to calculate the association rate constant (ka) values from the association phases for each concentration according to the equation1 ka=kobserved-kd∕Ric8A1-492 The average ka and kd were calculated as means of the individual ka and kd values for all curves. Equilibrium dissociation constant KD was calculated as mean kd/mean ka. Steady-state data fitting was performed using the GraphPad Prism 7 software with the equation for one site specific binding.

Gαt = test: BLI: Ric8A1–492 and its mutants binding to full-length Avi-tagged Gαt
Method: as §1

[2] = DSF, protein alone, source data, mean of replicates
[3] = DSF, protein alone, source data, replicate 1
[4] = DSF, protein alone, source data, replicate 2
[5] = DSF, protein alone, source data, replicate 3
[6] = DSF, protein alone, source data, replicate 4
[7] = source data, experiment 1, read-out: KD (uM), Gαt333-350
[8] = source data, experiment 2, read-out: KD (uM), Gαt333-350
[9] = source data, experiment 3, read-out: KD (uM), Gαt333-350
[10] = source data, mean of replicates, read-out: Mean KD, Gαt333-350
[11] = BLI steady state, source data, experiment 1, read-out: KD (uM), Gαt
[12] = BLI steady state, source data, experiment 2, read-out: KD (uM), Gαt
[13] = BLI steady state, source data, experiment 3, read-out: KD (uM), Gαt
[14] = BLI steady state, source data, mean of replicates, read-out: mean KD, Gαt

| binding to Gαt333–350 (in words) (Gαt333–350) | Kd (Gαt333–350; [7]) [µM] | Kd (Gαt333–350; [8]) [µM] | Kd (Gαt333–350; [9]) [µM] | Kd (Gαt333–350; [10]) [µM] | binding to Gαt (in words) (Gαt; BLI) | Kd (Gαt; [11]) [µM] | Kd (Gαt; [12]) [µM] | Kd (Gαt; [13]) [µM] | Kd (Gαt; [14]) [µM] | Molecule | mean Tm [1, 2] [C] | Tm (C ) [1, 3] [C] | Tm (C ) [1, 4] [C] | Tm (C ) [1, 5] [C] | Tm (C ) [1, 6] [C] | other results |
| --- | --- | --- | --- | --- | --- | --- | --- | --- | --- | --- | --- | --- | --- | --- | --- | --- |
|  |  |  |  |  |  |  |  |  |  | Ric8A1–426: bovine Ric8A construct lacking the C-terminal region, residues 1–426 (protein, left off: His6, N-terminal, state not stated) MEPRAVADALETGEEDVVMEALRAYNRENSQSFTFDDAQQEDRKRLAKLLVSVLEQGLPPSRRVIWLQSIRILSRDRSCLDSFTSRRSLQALACYAGISASQGSVPEPLNMDVVLESLKCLCNLVLSSPVAQALAAEAGLVVRLAERVGLCRQSSFPHDVQFFDLRLLFLLTALRTDVRQQLFQELQGVRLLTRALELTLGMTEGERHPELLPPQETERAMEILKVLFNITFDSIKREVDEEDAALYRHLGTLLRHCVMLAAAGDRTEELHGHAVNLLGNLPVKCLDVLLTLEPHEGSLEFLGVNMDVIRVLLSFMEKRLHQTHRLKESVAPVLSVLTECARMHRPARKFLKAQVLPPLRDVRTRPEVGELLRNKLVRLMTHLDTDVKRVAAEFLFVLCSESVPRFIKYTGYGNAAGLLAARGLMA |  |  |  |  |  | Tm ([1]; DSF, Sypro Orange, protein alone 0.5 mg/ml, 20 mM Tris-HCl pH 7.5, 150 mM KCl, 5% glycerol, 1 mM TCEP, 1 °C/minute, mean ± SD (n = 3)): 36.5 ± 1.1 °C; mean Tm ([1]; Suppl Fig 14B DSF, mean of 3 experiments, SD 1.1): 36.5 C |
| severely impaired the interaction | 23.8 | 26.9 | 26.8 | > 10 | severely reduced affinity | 11.2 | 11.5 | 15.1 | > 10 | A173W: A173 mutant of Ric8A1–492, printed A173W in figures and source data, A173F in text (protein, left off: His6, N-terminal, state not stated) MEPRAVADALETGEEDVVMEALRAYNRENSQSFTFDDAQQEDRKRLAKLLVSVLEQGLPPSRRVIWLQSIRILSRDRSCLDSFTSRRSLQALACYAGISASQGSVPEPLNMDVVLESLKCLCNLVLSSPVAQALAAEAGLVVRLAERVGLCRQSSFPHDVQFFDLRLLFLLTFLRTDVRQQLFQELQGVRLLTRALELTLGMTEGERHPELLPPQETERAMEILKVLFNITFDSIKREVDEEDAALYRHLGTLLRHCVMLAAAGDRTEELHGHAVNLLGNLPVKCLDVLLTLEPHEGSLEFLGVNMDVIRVLLSFMEKRLHQTHRLKESVAPVLSVLTECARMHRPARKFLKAQVLPPLRDVRTRPEVGELLRNKLVRLMTHLDTDVKRVAAEFLFVLCSESVPRFIKYTGYGNAAGLLAARGLMAGGRPEGQYSEDEDTDTDEYKEAKASINPVTGRVEEKPPNPMEGMTEEQKEHEAMKLVNMFDKLSRH | 45.6 | 45.57 | 45.54 | 45.74 | 45.49 | Kd (Gαt333–350; mean ± SD, n = 3, ND – not detectable, read-out: KD (μM) Gαt333–350): > 10 µM; Kd (Gαt; BLI steady state, mean ± SD, n = 3, ND – not detectable, read-out: KD (μM) Gαt): > 10 µM; Kd (Gαt; BLI, representative curve (Fig. 3g), read-out: KD, steady-state binding curve, Gαt): > 10 µM |
| severely impaired the interaction | 2.04 | 1.89 | 1.45 | 1.8 | severely reduced affinity | 2.04 | 1.84 | 1.66 | 1.8 | F169R: F169R mutant of Ric8A1–492 (protein, left off: His6, N-terminal, state not stated) MEPRAVADALETGEEDVVMEALRAYNRENSQSFTFDDAQQEDRKRLAKLLVSVLEQGLPPSRRVIWLQSIRILSRDRSCLDSFTSRRSLQALACYAGISASQGSVPEPLNMDVVLESLKCLCNLVLSSPVAQALAAEAGLVVRLAERVGLCRQSSFPHDVQFFDLRLLRLLTALRTDVRQQLFQELQGVRLLTRALELTLGMTEGERHPELLPPQETERAMEILKVLFNITFDSIKREVDEEDAALYRHLGTLLRHCVMLAAAGDRTEELHGHAVNLLGNLPVKCLDVLLTLEPHEGSLEFLGVNMDVIRVLLSFMEKRLHQTHRLKESVAPVLSVLTECARMHRPARKFLKAQVLPPLRDVRTRPEVGELLRNKLVRLMTHLDTDVKRVAAEFLFVLCSESVPRFIKYTGYGNAAGLLAARGLMAGGRPEGQYSEDEDTDTDEYKEAKASINPVTGRVEEKPPNPMEGMTEEQKEHEAMKLVNMFDKLSRH | 45.6 | 45.84 | 45.62 | 45.65 | 45.38 | Kd (Gαt333–350; source data, experiment 4, read-out: KD (uM), Gαt333-350): 1.89 µM |
| ablated the binding |  |  |  |  | no Gαt binding was detected |  |  |  |  | N123E: N123E mutant of Ric8A1–492 (protein, UniProt Q5E9J8 1-492, looked up, variant N123E, residues 1-492) MEPRAVADALETGEEDVVMEALRAYNRENSQSFTFDDAQQEDRKRLAKLLVSVLEQGLPPSRRVIWLQSIRILSRDRSCLDSFTSRRSLQALACYAGISASQGSVPEPLNMDVVLESLKCLCELVLSSPVAQALAAEAGLVVRLAERVGLCRQSSFPHDVQFFDLRLLFLLTALRTDVRQQLFQELQGVRLLTRALELTLGMTEGERHPELLPPQETERAMEILKVLFNITFDSIKREVDEEDAALYRHLGTLLRHCVMLAAAGDRTEELHGHAVNLLGNLPVKCLDVLLTLEPHEGSLEFLGVNMDVIRVLLSFMEKRLHQTHRLKESVAPVLSVLTECARMHRPARKFLKAQVLPPLRDVRTRPEVGELLRNKLVRLMTHLDTDVKRVAAEFLFVLCSESVPRFIKYTGYGNAAGLLAARGLMAGGRPEGQYSEDEDTDTDEYKEAKASINPVTGRVEEKPPNPMEGMTEEQKEHEAMKLVNMFDKLSRH | 46.7 | 46.78 | 46.59 | 46.65 | 46.83 |  |
